# Measured values reported in patent publication US20210163606A1.
# Target: NRP2 endogenous on U251 glioblastoma cells and on human lymphatic endothelial cells (HLEC) (human) (UniProt O60462)
# Assay: cell-based or functional assay
# Chain of NRP2 endogenous on U251 glioblastoma cells and on human lymphatic endothelial cells (HLEC) (human) (O60462 21-931): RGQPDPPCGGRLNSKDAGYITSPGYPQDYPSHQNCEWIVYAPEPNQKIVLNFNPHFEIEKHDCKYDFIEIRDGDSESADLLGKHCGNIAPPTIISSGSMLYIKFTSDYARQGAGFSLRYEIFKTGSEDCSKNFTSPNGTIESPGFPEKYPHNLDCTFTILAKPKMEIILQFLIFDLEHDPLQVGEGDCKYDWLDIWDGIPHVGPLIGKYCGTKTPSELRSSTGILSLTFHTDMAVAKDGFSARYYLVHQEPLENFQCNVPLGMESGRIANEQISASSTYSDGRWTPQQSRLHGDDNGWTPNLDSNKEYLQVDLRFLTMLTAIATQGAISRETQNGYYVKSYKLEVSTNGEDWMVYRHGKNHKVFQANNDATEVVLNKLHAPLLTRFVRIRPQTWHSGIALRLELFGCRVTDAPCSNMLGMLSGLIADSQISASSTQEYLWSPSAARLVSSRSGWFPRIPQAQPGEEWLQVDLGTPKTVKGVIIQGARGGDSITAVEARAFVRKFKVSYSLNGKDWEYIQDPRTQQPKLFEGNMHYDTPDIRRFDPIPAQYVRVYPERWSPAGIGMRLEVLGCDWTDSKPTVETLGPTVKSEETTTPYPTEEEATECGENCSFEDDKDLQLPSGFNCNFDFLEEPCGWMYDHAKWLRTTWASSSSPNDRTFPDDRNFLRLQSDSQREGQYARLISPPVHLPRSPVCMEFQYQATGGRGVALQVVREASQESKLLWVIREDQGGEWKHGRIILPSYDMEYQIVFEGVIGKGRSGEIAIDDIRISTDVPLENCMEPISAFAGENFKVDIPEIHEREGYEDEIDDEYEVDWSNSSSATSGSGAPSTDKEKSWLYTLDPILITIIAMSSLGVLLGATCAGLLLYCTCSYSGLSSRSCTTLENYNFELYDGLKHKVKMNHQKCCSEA
substance,measurement,value
Semaphorin 3F (SEMA3F) (from UniProt Q13275 19-779) (ligand),decrease in intracellular phospho-Akt levels in U251 cells,50%
